Reference: patent US20180021429A1, “ANTICANCER AGENTS OR ANTIMETASTATIC AGENTS USING FSTL1 AND COMBINATION DRUG THEREOF” (PHARMA FOODS INTERNATIONAL CO., LTD., priority 2015, published 2018)
“Also recorded” adds a separate entry of the source.

Tested on: induction of mesenchymal stem cells (MSCs) by FSTL1
Assay: Inhibitory activity against induction of MSC by FSTL1, CD45-negative cells (Examples 6, 8, 12)
Format: cell-based, mouse
Settings: Example 12, FIG. 7/37; FSTL1 20 ng/mL; antibody 10 μg/mL; 8 days
Description: (§1) Mouse bone marrow cells prepared in the same way as in Example 4 were supplemented with 50 ng/mL (final concentration) of FSTL1 and 10 μg/mL of the anti-FSTL1 antibody (#5-2, #5-3, #5-8, #5-10, 45-43, #6-55, or #7-34) or a control antibody anti-DNP antibody and cultured under stimulation. 11 days thereafter, the number of cells was counted while the cells were stained with a PE-Cy5-labeled anti-CD45 antibody (BD Pharmingen/Becton, Dickinson and Company, Cat. No. 555484), and the content of CD45-negative cells reported to generally contain MSCs at a high rate was analyzed by flow cytometry using FACScan to calculate the percentage and number of MSCs per culture (FIG. 5A).
(§2) Mouse bone marrow cells prepared in the same way as in Example 4 were supplemented with 20 ng/mL (final concentration) of FSTL1 and 10 μg/mL of the anti-FSTL1 antibody (#5-2, #5-3, #5-8, #5-10, #5-43, #6-55, #8-1, #8-4, #8-7, and #8-8) or a control antibody anti-DNP antibody and cultured under stimulation. 8 days thereafter, the number of cells was counted while the cells were stained with a PE-Cy5-labeled anti-CD45 antibody, and the content of CD45-negative cells was analyzed by flow cytometry using FACScan to calculate the percentage and number of MSCs per culture (FIG. 6A).
as §2, with “(#5-2,” for “(#5-2, #5-3,”, “#5-8,” for “#5-8, #5-10, #5-43,”, “#6-55, #7-34,” for “#6-55,”, “#8-7, or” for “#8-7, and”, “(FIG. 7).” for “(FIG. 6A).”
as §1, with “35A).” for “5A).”
as §2, with “36A).” for “6A).”
as §2, with “(#5-2,” for “(#5-2, #5-3,”, “#5-8,” for “#5-8, #5-10, #5-43,”, “#6-55, #7-34,” for “#6-55,”, “#8-7, or” for “#8-7, and”, “(FIG. 37).” for “(FIG. 6A).”

B1: #8-7: chicken-mouse chimeric anti-FSTL1 antibody clone; variable regions SEQ ID NO: 799 (light), 801 (heavy) (antibody, V domains shown)
VH: AVTLDESGGGLQTPGGGLSLVCKGSGFTFSSFNMFWVRQAPGKGLEWVAGIGKDGVPKYGAAVDGRATISKDNGQSTLRLQLNNLRAEDTGTYFCAKAAGGCSYDWCGIYAGDIDTWGHGTEVIVSS
VL: ASTQPSSVSANPGEAVKITCSGGSGSYYGWYQQKSPGSAPVTVIYNNNQRPSDIPSRFSGSKSGSTATLTITGVQAEDEAVYFCGGYDSSTGHGGIFGAGTTLTVL
modifications: mouse constant regions
For B1, the “inhibitory activity against the expansion of CD45-negative cells by FSTL1” value was “higher inhibitory activity was confirmed in the order of #7-34, #5-2, #6-55, and #8-7; also recorded: stronger inhibitory activity was confirmed in the order of clone #7-34, #5-2, 46-55, and #8-7”.
